Here are results for three molecules from US20250236673A1 (Ablynx, published 2025).

The target of assay [1] is T1, human serum albumin (human, UniProt P02768 25-609).
T1 construct: Immobilised by amine coupling on a C1 chip; also called HSA
The assay is described as follows: SPR on HSA (Example 2; same values as in Table 13).

Assay [2] deals with T1, human serum albumin. In words: SPR Biacore 8K+, HSA amine-coupled on C1 chip, ISVD analyte, 1:1 fit. A general note: Surface plasmon resonance follows binding to a sensor surface in real time, without labels.
In assay [3] the target is T2, recombinant human CEACAM5 (human, UniProt P06731 35-685, limits assumed).
T2 construct: Immobilised by amine coupling on a CM5 chip
T2 sequence (looked up): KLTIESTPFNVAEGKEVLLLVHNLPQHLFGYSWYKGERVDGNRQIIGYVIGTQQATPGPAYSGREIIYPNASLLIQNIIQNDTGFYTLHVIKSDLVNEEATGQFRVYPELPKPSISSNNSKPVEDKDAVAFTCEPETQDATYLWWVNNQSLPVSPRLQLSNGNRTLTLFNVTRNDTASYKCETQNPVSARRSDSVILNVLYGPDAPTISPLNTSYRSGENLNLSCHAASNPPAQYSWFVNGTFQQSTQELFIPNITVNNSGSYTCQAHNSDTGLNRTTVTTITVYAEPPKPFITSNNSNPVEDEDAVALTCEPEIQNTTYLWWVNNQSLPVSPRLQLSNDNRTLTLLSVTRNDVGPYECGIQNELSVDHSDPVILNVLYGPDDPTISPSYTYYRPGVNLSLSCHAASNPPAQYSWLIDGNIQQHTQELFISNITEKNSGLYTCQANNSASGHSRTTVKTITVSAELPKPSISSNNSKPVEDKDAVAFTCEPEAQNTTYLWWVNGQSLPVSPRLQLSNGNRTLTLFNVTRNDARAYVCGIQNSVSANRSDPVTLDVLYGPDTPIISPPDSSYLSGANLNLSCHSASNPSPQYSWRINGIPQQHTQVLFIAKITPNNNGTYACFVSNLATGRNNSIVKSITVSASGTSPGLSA
In words: SPR on CEACAM5 (Example 2; same values as in Table 13).

Assay [4] has as its target T2, recombinant human CEACAM5. The assay is described as follows: SPR Biacore 8K+, CEACAM5 amine-coupled on CM5, ISVD analyte, 1:1 fit.
Assay [5] addresses CD8. The assay is described as follows: kinetics, method not stated in Example 3.

T1 sequence (P02768 25-609 limits assumed): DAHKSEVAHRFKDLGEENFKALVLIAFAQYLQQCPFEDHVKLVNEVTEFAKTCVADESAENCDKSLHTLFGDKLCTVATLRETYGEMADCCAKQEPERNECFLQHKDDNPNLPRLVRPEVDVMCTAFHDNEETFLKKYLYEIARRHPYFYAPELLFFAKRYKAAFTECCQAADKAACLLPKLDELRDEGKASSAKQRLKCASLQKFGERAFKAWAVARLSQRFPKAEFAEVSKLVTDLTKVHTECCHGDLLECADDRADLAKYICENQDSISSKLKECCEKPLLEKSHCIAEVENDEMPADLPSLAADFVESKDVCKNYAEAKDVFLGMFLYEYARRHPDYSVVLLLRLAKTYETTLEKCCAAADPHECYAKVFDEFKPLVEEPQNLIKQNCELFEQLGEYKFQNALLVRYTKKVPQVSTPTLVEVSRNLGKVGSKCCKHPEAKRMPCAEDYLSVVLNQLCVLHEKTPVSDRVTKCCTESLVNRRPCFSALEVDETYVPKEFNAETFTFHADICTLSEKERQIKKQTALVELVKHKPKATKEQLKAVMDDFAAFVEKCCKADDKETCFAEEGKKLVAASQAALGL

B1: T028501805 (VHH)
VHH: EVQLVESGGGVVQPGGSLRLSCAASGFTFRSFGMSWVRQAPGKGPEWVSSISGSGSDTLYADSVKGRFTISRDNSKNTLYLQMNSLRPEDTALYYCTIGGSLSRSSQGTLVTVSS
notes: also called ALB00622; HSA006A06(K83R)
One may read the Kd as the free concentration of one partner at which half of the binding sites on the other are occupied at equilibrium, for simple one-to-one binding. The term koff denotes a measure of how fast the partners let go of each other. The term kon denotes the rate constant with which the complex forms. In the case of B1, in assay [1], the Kd is 1.28 nM, the off-rate (koff) worked out at 0.000992 s⁻¹ and the kon stood at 772000 M⁻¹ s⁻¹. Also, in assay [2], the affinity, expressed as Kd, was 1.28 nM; the dissociation rate constant (koff) is 0.000992 s⁻¹; the kon is 772000 M⁻¹ s⁻¹.

B2: T028501789 (VHH)
VHH: EVQLVESGGGVVQPGGSLRLSCAASGLTFSTYTMGWFRQAPGKEREFVAAIIWSGSNTYYADSVKGRFTISRDNAKNTVYLQMNSLRPEDTALYYCAAQHFGPIGLTTRGYHYWGQGTLVTVSS
notes: also called A031500384; A0315007E07(L11V, S76N, N82bS, E83R, V89L, H91Y, N101H)
As to B2, in assay [3], the Kd was determined as 1.24 nM, the koff is 0.000885 s⁻¹ and the kon is 716000 M⁻¹ s⁻¹. In assay [4], the equilibrium dissociation constant (Kd) came out at 1.24 nM, the koff turned out to be 0.000885 s⁻¹ and the kon stood at 716000 M⁻¹ s⁻¹.

B3: A044301152 (VHH)
VHH: EVQLVESGGGVVQPGGSLRLSCAASGFTFEDYAIGWFRQAPGKEREEVSCIRTYDEQTYYADSVKGRFTISRDNAKNTVSLQMNSLRPEDTALYYCAAGSYYACAYYSRPDPSEGHVDLDYWGQGTLVTVSS
Regarding B3, in assay [5], the dissociation constant (Kd) was 0.122 nM, the koff was 0.000412 s⁻¹ and the kon was 3.37e+06 M⁻¹ s⁻¹.
